Reference: PMC10620215

Target: EcbAgaN (Escherichia coli long-B pAgo-associated nuclease), N-terminal 6xHis tag (Escherichia coli)
Test: SEC-MALS; EcbAgaN, already purified by SEC, loaded onto Superdex 200 10/300 GL in 20 mM Tris-HCl pH 7.5, 250 mM NaCl, 0.5 mL/min; BSA monomer as standard

Substance: EcbAgaN (Escherichia coli long-B pAgo-associated nuclease), N-terminal 6xHis tag (enzyme)
- stoichiometry N: 2
